The series concerns ATP. The series can be described thus: switch fluorescence ratio, 500 uM ATP over buffer (Cy3 cluster intensity, sum of 5 cycles each) (fold (ratio)); higher = stronger signal-on switching upon ATP binding; sequences stand for … in TCGTCGGCAGCGTCAGATGTGTATAAGAGACAGTTTTTTTTTTTTTTTTTTTTTTTTT…TC. Conditions: aptamer strand: ATP DNA aptamer (quencher-CACCTGGGGGAGTATTGCGGAGGAAGG + anchor), 100 nM annealed; ATP concentration: 500 uM. In outline: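 Clusters with intensities outside 100-1000 RFU were excluded. The remaining Cy3-labelled switching-strand clusters on a modified Illumina MiSeq flow-cell had been annealed to 100 nM quencher-labelled ATP aptamer and imaged in selection buffer, then after 15 min with 500 uM ATP at 22 °C, for five cycles separated by NaOH stripping and re-annealing. The fluorescence ratio, averaged per switch-domain sequence, is each cluster's summed target-cycle Cy3 intensity over its summed buffer-cycle Cy3 intensity.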

± gives the standard deviation of the averaged measurements.
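Note: ATP exposure 15 min at 22 °C before imaging.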

CTAAGATAGC: the switch fluorescence ratio turned out to be 1.03 ± 0.041.
Take CTAAGGGAGG: the switch fluorescence ratio came to 0.992 ± 0.017.
Turning to CTAAGGGGGA, the switch fluorescence ratio is 1 ± 0.018.
For CTAAGGTCTT, the switch fluorescence ratio came out at 1.07 ± 0.11.
Take CTAAGTTGGG: the switch fluorescence ratio was determined as 1.1 ± 0.13.
CTAATAATAT: the switch fluorescence ratio was 1.01 ± 0.025.
Under CTAATAGTGC stands 1.016 ± 0.0021; under CTAATGATTG, 0.957 ± 0.027; under CTAATGGGGA, 0.981 ± 0.044.
Take CTAATGGTAT: the switch fluorescence ratio was 0.991 ± 0.022.
In the case of CTAATGGTTT, the switch fluorescence ratio was determined as 0.982 ± 0.024.
Under CTAATGTGCC stands 0.993 ± 0.052.
Consider CTAATTGCCA, for which the switch fluorescence ratio came out at 0.994 ± 0.017.
For CTAATTGCGA, the switch fluorescence ratio was determined as 1 ± 0.016.
Turning to CTAATTGGTT, the switch fluorescence ratio is 0.988 ± 0.015.
As for CTAATTTAGG, the switch fluorescence ratio was 1 ± 0.018.
With CTACAATGTA the figure was 1.01 ± 0.021; with CTACACGCTG, 1.01 ± 0.1.
With CTACATGAAA the figure was 1.006 ± 0.0034.
For the sequence CTACGAAGGG, the switch fluorescence ratio was found to be 1.04 ± 0.021.
Under CTACGTCATT stands 1.41 ± 0.095; under CTACTATAAT, 1.04 ± 0.043.
CTAGAAGCGG: the switch fluorescence ratio came out at 0.983 ± 0.013.
Under CTAGACAGGG stands 1.028 ± 0.0022.
Turning to CTAGACCCGG, the switch fluorescence ratio stood at 0.988 ± 0.027.
Under CTAGAGGCGA stands 1.03 ± 0.026.
For the sequence CTAGAGTGAG, the switch fluorescence ratio came to 1.02 ± 0.049.
Regarding CTAGATCGAT, the switch fluorescence ratio turned out to be 0.992 ± 0.022.
Under CTAGATCGGT stands 0.982 ± 0.051; under CTAGATGTTG, 0.977 ± 0.0027.
CTAGCGGTCG: the switch fluorescence ratio was determined as 0.997 ± 0.0051.
On to CTAGCTTAGC, for which the switch fluorescence ratio was 0.9902 ± 0.0056.
Regarding CTAGGACTTG, the switch fluorescence ratio worked out at 0.945 ± 0.026.
Under CTAGGATTAA stands 0.985 ± 0.013; under CTAGGCACAT, 1.1 ± 0.016; under CTAGGGAAAC, 1.002 ± 0.009.
As to CTAGGGCACA, the switch fluorescence ratio stood at 1.07 ± 0.1.
In the case of CTAGGGCATG, the switch fluorescence ratio worked out at 0.98 ± 0.016.
Consider CTAGGGGACA, for which the switch fluorescence ratio is 1.04 ± 0.029.
Under CTAGGGGGTC stands 0.993 ± 0.046; under CTAGGGGGTT, 1 ± 0.034.
For the sequence CTAGGGGTAT, the switch fluorescence ratio stood at 1.03 ± 0.14.
As for CTAGGGTTCT, the switch fluorescence ratio came out at 1.03 ± 0.019.
With CTAGGTCTGT the figure was 1 ± 0.011; with CTAGGTGGTT, 0.991 ± 0.04; with CTAGGTTTTG, 0.995 ± 0.047.
With CTAGTAAGCG the figure was 0.998 ± 0.048; with CTAGTCCTGA, 0.986 ± 0.043; with CTAGTGACTA, 0.987 ± 0.032.
With CTAGTGAGTT, the switch fluorescence ratio was 0.999 ± 0.023.
Consider CTAGTGGGTT, for which the switch fluorescence ratio was found to be 0.973 ± 0.02.
With CTAGTTATGA the figure was 1.02 ± 0.016; with CTAGTTGGTC, 0.981 ± 0.033; with CTAGTTTTTT, 0.9893 ± 0.0062.
Under CTATAATCTA stands 0.976 ± 0.041; under CTATATACCA, 1.06 ± 0.043.
In the case of CTATATTAGT, the switch fluorescence ratio stood at 1 ± 0.045.
Regarding CTATCTTTAG, the switch fluorescence ratio is 0.9891 ± 0.0043.
In the case of CTATGAGTGA, the switch fluorescence ratio was 1.01 ± 0.018.
As to CTATGATCTT, the switch fluorescence ratio stood at 0.992 ± 0.012.
For the sequence CTATGATTGT, the switch fluorescence ratio amounted to 0.977 ± 0.04.
With CTATGCTCAC the figure was 1.45 ± 0.041; with CTATGGCTGG, 0.981 ± 0.017; with CTATGGGGGA, 1.04 ± 0.02.
Consider CTATGTTGTT, for which the switch fluorescence ratio stood at 1 ± 0.018.
With CTATTAAGGT the figure was 0.98 ± 0.021.

Source of the values: the supplement of paper PMC10126150.
